# According to patent US20260167699A1 (Chugai, published 2026):
# Positions count from the first letter of the chain named.
# T1: FcγRIIa(R) extracellular domain, C-terminal His tag (human, UniProt P12318 34-217)
# T1 construct: extracellular domain; also called 2aR
# T1 sequence: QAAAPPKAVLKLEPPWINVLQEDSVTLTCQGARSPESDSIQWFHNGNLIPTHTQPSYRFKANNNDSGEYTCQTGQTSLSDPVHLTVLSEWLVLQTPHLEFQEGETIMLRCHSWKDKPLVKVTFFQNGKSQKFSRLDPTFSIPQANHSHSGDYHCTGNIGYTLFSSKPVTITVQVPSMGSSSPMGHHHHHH
# T2: FcγRIIa(H) extracellular domain, C-terminal His tag (human, UniProt P12318 34-217)
# T2 construct: extracellular domain; also called 2aH
# T2 sequence: T1 sequence with R134H
# T3: FcγRIIb extracellular domain, C-terminal His tag (human, UniProt P31994 43-217)
# T3 construct: extracellular domain; also called 2b
# T3 sequence: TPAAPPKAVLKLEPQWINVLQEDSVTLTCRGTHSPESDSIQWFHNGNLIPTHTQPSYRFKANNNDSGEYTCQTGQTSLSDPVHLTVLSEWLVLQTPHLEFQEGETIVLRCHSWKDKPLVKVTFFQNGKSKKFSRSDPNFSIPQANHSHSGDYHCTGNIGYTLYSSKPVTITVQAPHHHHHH
# B1: GpH7-A5/GpH7-B3 variant Y300_07I/GpL16-k0 (antibody, human IgG1, kappa)
# heavy 1: not shown
# heavy 2: not shown
# light: DIVMTQSPLSLPVTPGEPASISCQASESLVHSNRNTYLHWYLQKPGQSPQLLIYKVSNRFSGVPDRFSGSGSGTDFTLKISRVEAEDVGVYYCSQNTHVPPTFGQGTKVEIERTVAAPSVFIFPPSDEQLKSGTASVVCLLNNFYPREAKVQWKVDNALQSGNSQESVTEQDSKDSTYSLSSTLTLSKADYEKHKVYACEVTHQGLSSPVTKSFNRGEC
# notes: heterodimerized IgG1, one H chain mutated; also called He Ab; copies: 1 + 1 + 2
# B2: GpH7-A5/GpH7-B3 variant Y300_14T/GpL16-k0 (antibody, human IgG1, kappa)
# heavy 1: not shown
# heavy 2: not shown
# light: B1 light
# notes: as for B1
# B3: GpH7-A5/GpH7-B3 variant Y300_18N/GpL16-k0 (antibody, human IgG1, kappa)
# heavy 1: not shown
# heavy 2: not shown
# light: B1 light
# notes: as for B1
# B4: GpH7-A5/GpH7-B3 variant Y300_08L/GpL16-k0 (antibody, human IgG1, kappa)
# heavy 1: not shown
# heavy 2: not shown
# light: B1 light
# notes: as for B1
# B5: GpH7-A5/GpH7-B3 variant Y300_10E/GpL16-k0 (antibody, human IgG1, kappa)
# heavy 1: not shown
# heavy 2: not shown
# light: B1 light
# notes: as for B1
# B6: GpH7-A5/GpH7-B3 variant Y300_09D/GpL16-k0 (antibody, human IgG1, kappa)
# heavy 1: not shown
# heavy 2: not shown
# light: B1 light
# notes: as for B1
# B7: GpH7-A5/GpH7-B3 variant Y300_13S/GpL16-k0 (antibody, human IgG1, kappa)
# heavy 1: not shown
# heavy 2: not shown
# light: B1 light
# notes: as for B1
# B8: GpH7-A5/GpH7-B3 variant Y300_20W/GpL16-k0 (antibody, human IgG1, kappa)
# heavy 1: not shown
# heavy 2: not shown
# light: B1 light
# notes: as for B1
# B9: GpH7-A5/GpH7-B3 variant Y300_19Q/GpL16-k0 (antibody, human IgG1, kappa)
# heavy 1: not shown
# heavy 2: not shown
# light: B1 light
# notes: as for B1
# B10: GpH7-A5/GpH7-B3 variant Y300_16H/GpL16-k0 (antibody, human IgG1, kappa)
# heavy 1: not shown
# heavy 2: not shown
# light: B1 light
# notes: as for B1
# B11: GpH7-A5/GpH7-B3 variant Y300_11K/GpL16-k0 (antibody, human IgG1, kappa)
# heavy 1: not shown
# heavy 2: not shown
# light: B1 light
# notes: as for B1
# Biological target: T4, FcγRIa extracellular domain, C-terminal His tag (human, UniProt P12314 16-292)
# T4 construct: extracellular domain; also called 1a
# Assay: SPR; He Ab vs HeCon Ab (GpH7-A5/GpH7-B3/GpL16-k0)=100;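 note: surface plasmon resonance at 25 °C with the test antibody captured on a sensor chip via antigenic peptide, protein L or protein A/G and FcγR flowed over as analyte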
# Procedure: (§1) The antibody of interest was analyzed for its interaction with FcγR using a BiaCore™ T100, BiaCore™ A100, or BiaCore™ 4000 surface plasmon resonance system (GE Healthcare Japan Corp.). The running buffer used was HBS-EP+ (GE Healthcare Japan Corp.). The assay temperature was set to 25° C. The sensor chips used were: a chip prepared by immobilizing antigenic peptides onto Series S Sensor Chip CM5 (GE Healthcare Japan Corp.) by the amine coupling method; a chip prepared by immobilizing antigenic peptides biotinylated in advance onto Series S Sensor Chip SA (certified) (GE Healthcare Japan Corp.) through their interaction; a chip prepared by immobilizing protein L (ACTIGEN, BioVision, Inc.) onto Series S Sensor Chip CM5 (GE Healthcare Japan Corp.); and a chip prepared by immobilizing protein A/G (Thermo Fisher Scientific K.K.) onto Series S Sensor Chip CM5 (GE Healthcare Japan Corp.). The antibody of interest was captured onto any of these chips and allowed to interact with FcγR diluted with a running buffer. The antibody captured on the chip was washed off through the reaction of 10 mM glycine-HCl (pH 1.5) to regenerate the chip, which was repetitively used.
# T4 sequence (P12314 other isoform, or with tags, fused parts or gaps): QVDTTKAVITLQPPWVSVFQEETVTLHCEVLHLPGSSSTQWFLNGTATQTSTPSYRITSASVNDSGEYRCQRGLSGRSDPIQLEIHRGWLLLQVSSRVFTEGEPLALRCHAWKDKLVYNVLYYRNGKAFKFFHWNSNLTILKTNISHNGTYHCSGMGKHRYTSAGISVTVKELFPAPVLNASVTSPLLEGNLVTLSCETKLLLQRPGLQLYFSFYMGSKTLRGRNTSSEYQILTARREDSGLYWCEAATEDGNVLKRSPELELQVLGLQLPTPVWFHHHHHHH
row,He/Con 1a [%],Binder
1,102,B1
2,105,B2
3,101,B3
4,107,B4
5,108,B5
6,106,B6
7,105,B7
8,106,B8
9,106,B9
10,105,B10
11,101,B11

# Biological target: T1, FcγRIIa(R) extracellular domain, …
# Assay: as above
# Procedure: as §1
row,He/Con 2aR [%],Binder
1,90.9,B1
2,78.6,B2
3,96.2,B3
4,96.9,B4
5,127,B5
6,105,B6
7,72.4,B7
8,104,B8
9,119,B9
10,103,B10
11,73.1,B11

# Biological target: T2, FcγRIIa(H) extracellular domain, …
# Assay: as above
# Procedure: as §1
row,He/Con 2aH [%],Binder
1,120,B1
2,104,B2
3,101,B3
4,120,B4
5,108,B5
6,101,B6
7,97.8,B7
8,103,B8
9,107,B9
10,105,B10
11,74.2,B11

# Biological target: T3, FcγRIIb extracellular domain, …
# Assay: as above
# Procedure: as §1
row,He/Con 2b [%],Binder
1,97.4,B1
2,72.7,B2
3,92.7,B3
4,96.1,B4
5,175,B5
6,122,B6
7,70.4,B7
8,110,B8
9,142,B9
10,114,B10
11,67.4,B11

# Biological target: T5, FcγRIIIa extracellular domain, C-terminal His tag (human, UniProt P08637 17-208)
# T5 construct: extracellular domain; also called 3a
# Assay: as above
# Procedure: as §1
# T5 sequence (P08637 other isoform, or with tags, fused parts or gaps): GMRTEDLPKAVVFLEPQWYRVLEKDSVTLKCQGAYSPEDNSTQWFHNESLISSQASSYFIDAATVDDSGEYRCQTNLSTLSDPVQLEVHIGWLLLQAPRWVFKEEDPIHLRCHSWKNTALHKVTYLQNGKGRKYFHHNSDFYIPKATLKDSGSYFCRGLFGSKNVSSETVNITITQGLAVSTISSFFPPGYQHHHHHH
row,He/Con 3a [%],Binder
1,103,B1
2,92.8,B2
3,96,B3
4,114,B4
5,113,B5
6,104,B6
7,80.3,B7
8,101,B8
9,105,B9
10,102,B10
11,63.7,B11
